Data set [1] addresses T1, EhAGCK1 WT (Entamoeba histolytica AGC family kinase 1, EHI_188930), full-length recombinant His-tagged protein (Entamoeba histolytica, UniProt C4M2W0 1-433).
T1 construct: also called His-EhAGCK1; source: E. coli C41(DE3), purified (Ni2+-NTA)
T1 sequence: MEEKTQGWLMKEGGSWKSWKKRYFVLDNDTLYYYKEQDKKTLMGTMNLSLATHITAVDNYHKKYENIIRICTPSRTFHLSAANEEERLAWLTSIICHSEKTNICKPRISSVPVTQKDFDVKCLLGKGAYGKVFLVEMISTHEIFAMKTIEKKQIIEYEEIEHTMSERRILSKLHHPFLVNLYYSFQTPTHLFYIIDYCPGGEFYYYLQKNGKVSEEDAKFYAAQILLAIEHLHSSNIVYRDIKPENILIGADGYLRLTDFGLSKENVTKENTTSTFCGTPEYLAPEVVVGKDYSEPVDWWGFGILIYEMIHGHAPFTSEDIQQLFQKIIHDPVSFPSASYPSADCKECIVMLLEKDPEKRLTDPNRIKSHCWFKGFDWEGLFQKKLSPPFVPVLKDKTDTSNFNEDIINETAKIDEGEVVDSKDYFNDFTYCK
Briefly: MST; His-tagged kinase labelled with RED-tris-NTA 2nd Generation dye, kept constant (50 nM by the legend); unlabelled peptide in 16 1:1 dilutions, 500 uM to 153 nM as printed; 50 mM Tris-Cl pH 8, 150 mM NaCl, 1 mM beta-ME, 5% glycerol; 25 C; Monolith NT.115, 50% LED, medium MST power. Particulars: both partners purified.

In data set [2] the target is T2, KDD1, kinase-dead EhAGCK1 (K147A and D241A) (Entamoeba histolytica, UniProt C4M2W0 1-433, K147A | D241A).
T2 construct: source: E. coli C41(DE3), purified (Ni2+-NTA)
T2 sequence: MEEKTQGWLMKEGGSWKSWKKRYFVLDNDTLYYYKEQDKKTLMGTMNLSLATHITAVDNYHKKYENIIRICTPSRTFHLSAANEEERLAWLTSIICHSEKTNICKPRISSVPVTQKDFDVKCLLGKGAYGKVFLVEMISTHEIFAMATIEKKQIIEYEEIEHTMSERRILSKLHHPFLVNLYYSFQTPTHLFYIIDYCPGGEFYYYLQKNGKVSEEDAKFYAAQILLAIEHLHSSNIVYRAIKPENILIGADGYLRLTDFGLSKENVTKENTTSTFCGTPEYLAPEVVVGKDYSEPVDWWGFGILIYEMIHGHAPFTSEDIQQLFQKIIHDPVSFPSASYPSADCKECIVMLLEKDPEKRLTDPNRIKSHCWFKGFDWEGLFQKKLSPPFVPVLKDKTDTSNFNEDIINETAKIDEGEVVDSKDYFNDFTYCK
Described as above. The following applies: both partners purified.

The target of data set [3] is T3, EhAGCK2 WT (Entamoeba histolytica AGC family kinase 2, EHI_053040), full-length recombinant His-tagged protein (Entamoeba histolytica, UniProt C4M3C2 1-434).
T3 construct: source: E. coli C41(DE3), purified (Ni2+-NTA)
T3 sequence: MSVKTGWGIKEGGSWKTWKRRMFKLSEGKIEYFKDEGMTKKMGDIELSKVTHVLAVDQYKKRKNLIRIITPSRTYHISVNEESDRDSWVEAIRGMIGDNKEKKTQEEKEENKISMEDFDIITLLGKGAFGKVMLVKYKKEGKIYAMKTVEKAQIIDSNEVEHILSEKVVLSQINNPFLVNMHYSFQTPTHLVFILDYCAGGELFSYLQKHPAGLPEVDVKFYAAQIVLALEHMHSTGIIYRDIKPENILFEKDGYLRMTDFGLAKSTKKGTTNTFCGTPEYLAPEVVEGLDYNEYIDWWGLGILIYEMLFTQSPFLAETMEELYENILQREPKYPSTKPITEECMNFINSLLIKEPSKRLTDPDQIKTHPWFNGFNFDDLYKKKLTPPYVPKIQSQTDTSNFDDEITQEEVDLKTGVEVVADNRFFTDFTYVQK
The data set is described as above. The following applies: both partners purified.

In data set [4] the target is T4, KDD2, kinase-dead EhAGCK2 (K147A and D242A) (Entamoeba histolytica, UniProt C4M3C2 1-434, K147A | D242A).
T4 construct: source: E. coli C41(DE3), purified (Ni2+-NTA)
T4 sequence: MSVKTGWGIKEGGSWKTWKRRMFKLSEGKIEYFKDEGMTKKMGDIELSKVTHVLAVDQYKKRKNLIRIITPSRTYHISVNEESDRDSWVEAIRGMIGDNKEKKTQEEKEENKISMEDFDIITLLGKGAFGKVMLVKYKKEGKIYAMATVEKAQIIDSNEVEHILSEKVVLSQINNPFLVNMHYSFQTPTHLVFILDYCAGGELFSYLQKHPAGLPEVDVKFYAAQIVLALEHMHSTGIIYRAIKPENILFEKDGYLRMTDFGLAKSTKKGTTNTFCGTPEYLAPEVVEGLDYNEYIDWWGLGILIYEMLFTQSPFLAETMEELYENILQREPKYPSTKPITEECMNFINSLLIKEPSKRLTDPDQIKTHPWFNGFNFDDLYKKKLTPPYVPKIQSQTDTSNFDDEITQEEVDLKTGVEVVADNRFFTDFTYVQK
Described as above. Particulars: both partners purified.

Substrate in data set [5]: Nc1ncnc2c1ncn2[C@@H]1O[C@H](COP(=O)(O)OP(=O)(O)OP(=O)(O)O)[C@@H](O)[C@H]1O
Nature of the data set: ADP-Glo luminescent kinase assay with 0-1000 uM ATP, 50 uM HsGSK3 peptide (GRPRTTSFAESCK) as co-substrate and 20 uM kinase, pH 7.5, 30 °C, Michaelis-Menten fit. It counts as biochemical. As to the method: (§1) Fig 6 Graphs representing the Michaelis-Menten kinetics of EhAGCK1 and EhAGCK2. Panel A-D represents the Km and Vmax for peptide substrates, assays were performed in the presence of 20 μM EhAGCK1 (WT and KDD1) and EhAGCK2 (WT and KDD2) proteins were assayed in the presence of 250 μM ATP and serial dilutions (0 μM to 200 μM) of EhRhoGEF, EhCoactosin, and HsGSK3 peptide substrates. […] Panel E-H represents the Km and Vmax for ATP, assays were assessed in the presence of 50 μM peptide substrates (EhRhoGEF, EhCoactosin, and HsGSK3), serial dilution(0 μM to 1000 μM) of ATP, and 20 μM of the proteins EhAGCK1 (WT, and KDD1) and EhAGCK2 (WT, and KDD2). […] Relative luminescence unit (RLU) values are converted to μM/min using the method described in the Materials and Methods section. […]
(§2) Further, we determined the Km and Vmax values for ATP as it serves a vital metabolic molecule and substrate crucial for kinase activity, determining ATP Km and Vmax a key biochemical parameters for all kinases. […] Additionally, we compared previously determined Km and Vmax values of human Akt proteins in the presence of GSK3 peptide with our kinase protein results, which are presented in Table 1.
(§3) The phosphorylation activity of kinases was measured using the ADP-Glo kinase assay kit according to the manufacturer’s protocol with few modifications (Promega, Madison, WI, Catalogue number V6930). […]

Substrate in data set [6]: Nc1ncnc2c1ncn2[C@@H]1O[C@H](COP(=O)(O)OP(=O)(O)OP(=O)(O)O)[C@@H](O)[C@H]1O
Briefly: ADP-Glo luminescent kinase assay with 0-1000 uM ATP, 50 uM EhCoactosin peptide as co-substrate and 20 uM kinase, pH 7.5, 30 °C, Michaelis-Menten fit. Format: biochemical. The procedure:
as §1, §2, §3
A general note: ADP-Glo turns the ADP formed in a reaction into a luminescent signal.

Substrate in data set [7]: Nc1ncnc2c1ncn2[C@@H]1O[C@H](COP(=O)(O)OP(=O)(O)OP(=O)(O)O)[C@@H](O)[C@H]1O
Briefly: ADP-Glo luminescent kinase assay with 0-1000 uM ATP, 50 uM EhRhoGEF peptide as co-substrate and 20 uM kinase, pH 7.5, 30 °C, Michaelis-Menten fit. It counts as biochemical. The procedure: as §1, §2, §3

B1: human GSK3 (HsGSK3) peptide (peptide)
peptide: GRPRTTSFAESCK
notes: also called human GSK3 peptide substrate; source: synthetic peptide
Usually Kd stands for the equilibrium constant for the complex coming apart. Take B1: the Kd in data set [1] was 2.62 µM; in data set [2], 1080 µM; in data set [3], 0.0848 µM; in data set [4], 2.38 µM.

B2: EhAGCK2 WT (Entamoeba histolytica HM-1:IMSS) (protein)
chain: MSVKTGWGIKEGGSWKTWKRRMFKLSEGKIEYFKDEGMTKKMGDIELSKVTHVLAVDQYKKRKNLIRIITPSRTYHISVNEESDRDSWVEAIRGMIGDNKEKKTQEEKEENKISMEDFDIITLLGKGAFGKVMLVKYKKEGKIYAMKTVEKAQIIDSNEVEHILSEKVVLSQINNPFLVNMHYSFQTPTHLVFILDYCAGGELFSYLQKHPAGLPEVDVKFYAAQIVLALEHMHSTGIIYRDIKPENILFEKDGYLRMTDFGLAKSTKKGTTNTFCGTPEYLAPEVVEGLDYNEYIDWWGLGILIYEMLFTQSPFLAETMEELYENILQREPKYPSTKPITEECMNFINSLLIKEPSKRLTDPDQIKTHPWFNGFNFDDLYKKKLTPPYVPKIQSQTDTSNFDDEITQEEVDLKTGVEVVADNRFFTDFTYVQK
notes: full-length, His-tagged (pCold), expressed in E. coli C41(DE3)
Turning to B2, the Km in data set [5] came out at 291± 74.4 μM uM; in data set [6], 92.06 µM.

B3: EhAGCK1 WT (Entamoeba histolytica HM-1:IMSS) (protein)
chain: MEEKTQGWLMKEGGSWKSWKKRYFVLDNDTLYYYKEQDKKTLMGTMNLSLATHITAVDNYHKKYENIIRICTPSRTFHLSAANEEERLAWLTSIICHSEKTNICKPRISSVPVTQKDFDVKCLLGKGAYGKVFLVEMISTHEIFAMKTIEKKQIIEYEEIEHTMSERRILSKLHHPFLVNLYYSFQTPTHLFYIIDYCPGGEFYYYLQKNGKVSEEDAKFYAAQILLAIEHLHSSNIVYRDIKPENILIGADGYLRLTDFGLSKENVTKENTTSTFCGTPEYLAPEVVVGKDYSEPVDWWGFGILIYEMIHGHAPFTSEDIQQLFQKIIHDPVSFPSASYPSADCKECIVMLLEKDPEKRLTDPNRIKSHCWFKGFDWEGLFQKKLSPPFVPVLKDKTDTSNFNEDIINETAKIDEGEVVDSKDYFNDFTYCK
notes: as for B2
In the case of B3, the Km in data set [5] amounted to 241.7 ±22.2 μM uM; in data set [7] it was 125.4 µM.

Source of the values: article PMC11642994, “AGC family kinase of Entamoeba histolytica: Decoding the members biochemically” (PLOS Pathogens, 2024).
